According to the DeepSol protein solubility set:

Assay: soluble on expression in E. coli; label from the status in PepcDB or PDB records
With “MSLSMKKERGVVYTPLKISNYIIDSTISEEDIIKNPFLKIVDPACGCGNIIIPCFIYLRNIYIKNLDKINNINKLELREENINYHIIKNNLFGYDVDLNAIKVLTIDLFCESKCFSSNFLCKDFLLDEIGIKYDIFLSNPPYVGLKSINKEYSAILKTMYPSYKDKADISYCFFEKSILCLKIDGKLGFITSRYFLESQSGEELRRILVEKCSLYKIVDFYGIRPFKKAGIDTVMIFLERGIGDRKSIEIIKPKIMKNNRKDEFYYSLFNGTNEGIDKFYINIKALDSKRWILRKDEEIDIINKIEKNSEGHHHHHH” the “soluble on expression in E. coli” value was “not soluble”.
With “NKDFQWDFSLNWSKSVKKLTEIYGGQKKFGDLKVGDRADAFYGSQWQKSADGELILDENGMPTKDAYKQYLGHLDPNFRMGMQNTFRYKDFTLSVDLDGAYKGVIYSVLSEKLWWGGKHPESVEYRDAQYAVGHPIYVPNGVVVTGGELKRDIDGNVISDTRTYKRNTTAVDWQQWCQNYPYQAYVSSKENAKFANVFDRSYIKLRRVALTYNFTKLLSKQSPVKGLTATVFGNNLAVWKKVPFVDPDYTGDSNDGGANDPTARYIGMGVNIKF” the “soluble on expression in E. coli” value was “not soluble”.
For “MMLAMIKDPFARLGLDREVLTVSQLNGRARVLLEDVFSSIWVEGEISNLSRPASGHVYFTLKDSGAQVRCALFRQSAARVRQALKDGLQVKVRGKVSLFEGRGDYQLILDTVEPAGDGALRLAFDALKAKLSDEGLFSADRKVALPLHPQRIGIISSPTGAVIRDIISVFRRRAPRVELTLIPTAVQGREAINQIVRALKLADARGFDALILARGGGSLEDLWCFNEEAVARAIDACVTPIVSAVGHETDVSISDFVADVRAPTPSAAAELLAPDSSDLHRRVDNLHRRLVSRMQDRLMRERLRLEGISRRLRHPGERLRQQSQRLDDLDMRLRRAFEQSMHKKQVRLAHMESRLTAQHPGRTLAFLRQRLDALAERLPRAIREQIKVRKLQLQSQMQTLNVVSPLATLGRGYSILLDERGHAIRNAAQTQPGQRLTARLGEGELQVRVEDNHLTPVTLSLLD”, the “soluble on expression in E. coli” value was “not soluble”.
For “MGSDKIHHHHHHMSNPLLKQICELDVFTLLVFKSIFDNGHANSAAKALNVSAPKISRCLNALRLTFNDELFYRRQQGLKPTPLAESLYVAICQFTDAVHHLEQSALQLQHSASHVELPLHIAASNGLLSFLAPQLSSPEVISELGQIRLHKWQDNSAELIHAGELDLGITQEPVETKELTITHLGSIASVYIVASKHHPLWESQFDITLEQICRHSFLCLEMKGFNARIDPLELFCQRQGLLLPSIERVIDREEWYAHLLTMQSVAFCSSIDMHTVKHMPGLKLVPLSVSELHRLHETIMPPQYFLIEKPRSHRRYNQTQCELVVRSWLTVLSSNSRVSQ”, the “soluble on expression in E. coli” value was “not soluble”.
In the case of “MGSDKIHHHHHHCEDIFNDLAVNPNQSDVNSFYTTLENCNKGILGIYGYISTPRNLGACGFGLMLTRSDEGCSVADYGVPGAYNEEFTPSYYSLVQPFQLMYTAASQANQMIESLTEIEFSNKELQDAYLGEAYFLRAFTHFFLFINYRNIPLIKELPKAPNEYKPQATPEEAWDFIIDDLIKAKDLLPDKNFWDAKNKGRVTKASAYALLGKSYLYRSGIEPKYGTSQTTYYNEAAAAFAEIINGNCGNYRLVDDYSWNFDVAHENNDESIFEVQFVGVLNTGFNPGFVDSGLFNDVRCKMCIMNRSRNSNSSAQVMHNWLYDKFVASKTVTGETDPRMFGSFVFNDNVSEIIRPKGMKVTFLEGKDWEAEMGSKEGTFGEQYELAMGYKMCSRKWLDWTLPPTDDAGGHFFNGRAQGVNWRMIRYSDVLLMYAEAVVMGGKATANITPLEAINKVRDRVGVPHVTEANMRTIEDERILELTYEGFRFFDLLRWGKVVERFRELENTDPLFKRFSRAQYMGFKENKNEWVPLPIDEVEGNPYITKNNPGW”, the “soluble on expression in E. coli” value is reported as “not soluble”.
In the case of “MRIEGELVKAKFVKRLNRFVALVEVDGVQEFAHVPNTGRLKELLVDGAAVMVRKYDKTDRKTRFGLILVRKNGIWVSIDSANAPNRIMYEALVQGKFDKFRDYSEIRREVTVLNSRFDFGLFSEGKEYYIEVKGVTLVENRQGFFPDAPTQRGTRHLEELTKIRQNGKEAGVAFIVQREDADVVRPNDRTDKNFANALRIAAEAGVDLMAYVCKVDAEQRRMDIVREIPVIIK”, the “soluble on expression in E. coli” value is reported as “soluble”.
With “MAHHHHHHMSAAGRLIRIRKKSKWIDRRSKRIPHNGKDVWQFGEQPSCALCHVRFRFKQDYEAHKESELHQNRLRWVETMKWWEEIGEPHHQQHAASEWEWFRQRVLPAKAAAMGLSEEDAARELRRAVMHETPRWYSRIQPPNARSEIKEPRDQRWPSSPKW” the “soluble on expression in E. coli” value was “not soluble”.
With “AHHHHHHGSIIRGDEPEQKALLRKLYRAGNYFMMGDEAIAYGAIFAGCRFYAGYPITPSSEIAETMARELPKVGGYYLQMEDEIASIAAIIGASWTGLKAMTATSGPGFSLMQENIGYAVMTETPVVIVDVQRSGPSTGQATKGAQGDFFQARWGTHGDHPIIAVSPISVEDAFWETIRAFNIAEQLRTPVIVLFDGILGHTREQIRIPDPDEVEISYRKLPRNEEEAKLPFGDPHGDGVPPMPIFGKGYFTHVTGSTHKENGLRDVYTPEVHDRLVRRLHKKIEKNRHIYEKYNEYFTDDAEILVVSWGVSARPSLGAVKKAREEGIKAGLFVPKTVHPFPGEKMRELGKKVRAILVPEMNLGQLILEVQRFVNDDVILKGVNKIGGVPITVEEILREIRGVA” the “soluble on expression in E. coli” value was “not soluble”.
For “MSLSENIAAYVGLDVHKETLAVAIAAPERLGEVRYYGTINNEAQAVRRLFQKLQGLYGNILSCYEAGPCGFGLYHQLTAMNIKCQVIAPSRIPKSPTDRIKNDHRDAISLARLLRAGELTPVWIPDLTHEAMRDLIRARAAAKRDSRVARQRILSMLLRTDKHYAGKHWTGKHRTWLANQSFSQPSQQIAFQHYCQSLEQIEDRILQLDQEISRLLPEWSLCNLVCQLQALKGVGQLIAITLVAELGDFSRFSNPKQLMAFLGLVPGEYSSGNSIRPRGITKVGNSELRRLLYEAAWSYRTPAKVGAWLIYYRPDSVTQYSKDIAWKAQQRLCSRYRSLTAKGKKSQVAITAVARELTGFMWDIALAAQSSFSQQKQNEGHHHHHH”, the “soluble on expression in E. coli” value was “soluble”.
For “MLGMYVPDRFALKSSRVQDGMGLYTARRVRKGEKFGPFAGEKRMPEDLDENMDYRLMWEVRGSKGEVLYILDATNPRHSNWLRFVHEAPSQERKNLAAIQEGENIFYLAVDDIETDTELLIGYLDSDVEAEEEEQQALTMTKEGKVDHSKGQLAAGSKGHLGCEEDFACPQCESSFPSEEVLTEHLQSLHQKPTGEKEFKCENCGKKFPVRQALQRHFEQHRKACRGEARFVCKADSCGKRLKSKDALRRHQENVHTGDPKRKLICSVCNRKCTSVSSLQEHRKIHEIFDCQECMKKFISANQLKRHMITHSEKRPYNCEICNKSFKRLDQVGAHKVIHSEDKPYQCKLCGKGFAHRNVYKNHKKTHSEERPFQCDACKALFRTPFSLQRHLLIHNSERTFKCHHCDATFKRKDTLNVHVQVVHERHKKYRCELCNKAFVTPSVLRSHKKTHTGEKEKVCPYCGQKFASSGTLRVHIRSHTGERPYQCPYCEKGFSKNDGLKMHIRTHTREKPYQCSECSKAFSQKRGLDATKRTHTGEKPFQCDVCDLAFSLKKMLIRHKMTHNPNRPMAECHFCHKKFTRNDYLKVHMDNIHGVADS”, the “soluble on expression in E. coli” value was “soluble”.
In the case of “MSSQTILSVNNLSVSFTTNDGIVDAVKNVSFELQAGETLSIVGESGSGKSVSTNALMTLLPDNAIVHPDSSIMFEGESILDKTERQMQRIRGDRIGMIFQEPMTSLNPYMRVGIQVAEAMMCHRSVNQRKAKERVLELFDLVHLPNPQQAYDKYPHEFSGGQLQRIMIAMALINEPDILIADEPTTALDVTVQAEVLLLIKEIQAKMGMAILFITHDLGVVKHFADRVLVMCKGEVVEEGITEHLFSEPQHEYTKMLINSIPKGSKTPVDEKASELLNAEDIR”, the “soluble on expression in E. coli” value is reported as “not soluble”.
In the case of “KNAELSIKLNKEEYQANEDIEIQITAPYTGSGLITIERDKVYAVHWFKTEAQNSVQTIRIPADFQGNGYVNVAFIRDWESPELFISPLSYSVAPFNVNHDKHDIKIGLKTPELARPGESFTIDYHTDKPGKIIVFAVDEGILQVANY”, the “soluble on expression in E. coli” value is reported as “not soluble”.
With “MGSDKIHHHHHHTGIWQWSVPVHNFSTHPKNPESRAYLWIPGQCEQVKAILVAQHNMEEISILEDEAFRQRMAELDVAQIWVCPSFNHGFDFTDGAWETLDGLLADLAEESGYKELSTAPLIAIGHSAAASWPYYLAAYKPERTLACISVSGQWPYHRDRWLCPDIWGERNINKIPCLETMGEYESAHTWSNEGLKERKEHPLLPLSMLACPAEGHFAYTPEKAQYIALYIKKAMHYGHVDPTKEGWLMERWKKNEKPSCIPAPVNQFKGDPAQAFWFFDREMIEATLAYQSRYYDMKPQLVSVSQNGKTVSQQNTHLQVHPAFIPQEDGITFQLTPVFLDTVPGESPRLSNWTDLPVGASIGHAGKAPVLQMITGPVVLVDSVTFRIQWNRGTLWTDKKSDIVFSITHPGDEEYKPAVQQAQMIIPVKNTEGQQQYIKFATLPDIKRGTKYVSLSAVSSCGLPVDFYVESGPAYVDGNRLILTAIPPKTTYPVKVTVIAWQYGKNSDPKIKTAEPVKQTFYIR” the “soluble on expression in E. coli” value was “not soluble”.
For “MLSPIENERSEIPSPEKLKLVEEPSDDESKFSNYDSDDWETLSDDLRLLDEEWGKSGGFDVDFSKVRHRFGRGAVHLDDDNMVSEPHETNRDLLNRLSNMAISFYNDKTGIKLELVKVLRANFHPSAAITLYITFEANDPSDGNQTKRYQAVVRYLSFDIEVCSCNPEPSSS”, the “soluble on expression in E. coli” value was “soluble”.
For “GSYHADPSLVSFLTGLGCPNCIEYFTSQGLQSIYHLQNLTIEDLGALKIPEQYRMTIWRGLQDLKQGHDYSTAQQLLRSS”, the “soluble on expression in E. coli” value was “soluble”.
With “MSLDLLFSECNDEIDNAKLIMKERRFTASYTFAKFSTGSMLLTKDIVGKSGVSIKRLPTELQRKFLFDDVYLDKEIEKVTIEARKSNPYPQISESSLLFKDALDYMEKTSSDYNLWKLSSILFDPVSYPYKTDNDQVKMALLKKERHCRLTSWIVSQIGPEIEEKIRNSSNEIEQIFLYLLLNDVVRASKLAIESKNGHLSVLISYLGSNDPRIRDLAELQLQKWSTGGCSIDKNISKIYKLLSGSPFEGLFSLKELESEFSWLCLLNLTLCYGQIDEYSLESLVQSHLDKFSLPYDDPIGVIFQLYAANENTEKLYKEVRQRTNALDVQFCWYLIQTLRFNGTRVFSKETSDEATFAFAAQLEFAQLHGHSLFVSCFLNDDKAAEDTIKRLVMREITLLRASTNDHILNRLKIPSQLIFNAQALKDRYEGNYLSEVQNLLLGSSYDLAEMAIVTSLGPRLLLSNNPVQNNELKTLREILNEFPDSERDKWSVSINVFEVYLKLVLDNVETQETIDSLISGMKIFYDQYKHCREVAACCNVMSQEIVSKILEKNEGHHHHHH” the “soluble on expression in E. coli” value was “not soluble”.
